Residue numbers refer to the chain shown, from its start. Names may count otherwise.
T1: Human LRRC15 Protein, His Tag (Acro Biosystems) (human, UniProt Q8TF66 22-538, limits assumed)
T1 construct: Bought protein with His tag
T1 sequence (looked up): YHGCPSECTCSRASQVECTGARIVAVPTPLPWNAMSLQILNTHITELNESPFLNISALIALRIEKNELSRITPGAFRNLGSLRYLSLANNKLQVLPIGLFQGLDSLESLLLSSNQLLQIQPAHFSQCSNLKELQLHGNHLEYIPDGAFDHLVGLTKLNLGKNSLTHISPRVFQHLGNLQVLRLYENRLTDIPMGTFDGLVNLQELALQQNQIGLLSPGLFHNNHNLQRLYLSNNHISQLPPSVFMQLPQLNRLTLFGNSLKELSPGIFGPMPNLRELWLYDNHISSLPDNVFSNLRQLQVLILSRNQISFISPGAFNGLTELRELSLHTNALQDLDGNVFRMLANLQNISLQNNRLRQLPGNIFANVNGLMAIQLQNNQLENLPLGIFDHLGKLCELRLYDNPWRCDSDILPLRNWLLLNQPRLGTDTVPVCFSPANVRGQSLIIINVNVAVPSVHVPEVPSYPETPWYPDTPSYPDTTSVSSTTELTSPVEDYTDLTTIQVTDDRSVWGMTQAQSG

T2: Human LRRC15 Protein, His Tag (Acro Biosystems) (human, UniProt Q8TF66 22-538, limits assumed)
T2 construct: not shown: His tag
T2 sequence (looked up): T1 sequence (looked up)

B1: MYT8387 (antibody, V domains shown)
VH: EVQLVESGGGLVQPGGSLRLSCTASGLDFRRTNHICWVRQAPGKGLEWVGCIYIADVVHYYASWAKGRFTFSRDTSKNTVYLQMNSLRAEDTAVYYCARGADGGFVYGMDLWGQGTLVTVSS
VL: EIVMTQSPSTLSASVGDRVIITCQASQSIGNYLSWYQQKPGKAPKRLIYSASTLPSGVPSRFSGSGSGAEFTLTISSLQPDDFATYYCQNNYWLAGYGHPFGQGTKLTVL
notes: hu15G7 VH Y34H; human Fc
B2: MYT8405 (antibody, V domains shown)
VH: B1 VH with G104H, F105H
VL: B1 VL
notes: hu15G7 VH Y34H, G104H, F105H; human Fc
B3: MYT8403 (antibody, V domains shown)
VH: B1 VH with Y53H, F105H
VL: B1 VL
notes: hu15G7 VH Y34H, Y53H, F105H; human Fc
B4: MYT8395 (antibody, V domains shown)
VH: B1 VH with V106H
VL: B1 VL
notes: hu15G7 VH Y34H, V106H; human Fc
B5: MYT8388 (antibody, V domains shown)
VH: B1 VH with H34Y, Y53H
VL: B1 VL
notes: hu15G7 VH Y53H; human Fc
B6: MYT8389 (antibody, V domains shown)
VH: B1 VH with H34Y, G104H
VL: B1 VL
notes: hu15G7 VH G104H; human Fc
B7: MYT8392 (antibody, V domains shown)
VH: B1 VH with Y53H
VL: B1 VL
notes: hu15G7 VH Y34H, Y53H; human Fc
B8: MYT8390 (antibody, V domains shown)
VH: B1 VH with H34Y, F105H
VL: B1 VL
notes: hu15G7 VH F105H; human Fc
B9: MYT8400 (antibody, V domains shown)
VH: B1 VH with H34Y, G104H, V106H
VL: B1 VL
notes: hu15G7 VH G104H, V106H; human Fc
B10: MYT8394 (antibody, V domains shown)
VH: B1 VH with F105H
VL: B1 VL
notes: hu15G7 VH Y34H, F105H; human Fc
B11: MYT8397 (antibody, V domains shown)
VH: B1 VH with H34Y, Y53H, F105H
VL: B1 VL
notes: hu15G7 VH Y53H, F105H; human Fc
B12: MYT8398 (antibody, V domains shown)
VH: B1 VH with H34Y, Y53H, V106H
VL: B1 VL
notes: hu15G7 VH Y53H, V106H; human Fc
B13: MYT8402 (antibody, V domains shown)
VH: B1 VH with Y53H, G104H
VL: B1 VL
notes: hu15G7 VH Y34H, Y53H, G104H; human Fc
B14: MYT8399 (antibody, V domains shown)
VH: B1 VH with H34Y, G104H, F105H
VL: B1 VL
notes: hu15G7 VH G104H, F105H; human Fc
B15: MYT8401 (antibody, V domains shown)
VH: B1 VH with H34Y, F105H, V106H
VL: B1 VL
notes: hu15G7 VH F105H, V106H; human Fc
B16: MYT9690 (antibody, V domains shown)
VH: EVQLVESGGGLVQPGGSLRLSCTASGFSFSSEHWICWVRQAPGKGLEWVGCIYAGSIGSTYYASWAKGRFTISRDTSKNTVYLQMNSLRAEDTAVYYCARAPNDIYNYYFNLWGQGTLVTVSS
VL: EIVMTQSPSTLSASVGDRVIITCQASENIYNYLAWYQQKPGKAPKLLIYYASTLASGVPSRFSGSGSGAEFTLTISSLQPDDFATYYCQSGYVSKSSTFGQGTKLTVL
notes: also called hu29F1 VH S32E
B17: MYT9693 (antibody, V domains shown)
VH: B16 VH with E32S, I35E
VL: B16 VL
notes: also called hu29F1 VH I35E
B18: MYT9696 (antibody, V domains shown)
VH: B16 VH with E32S, I52E
VL: B16 VL
notes: also called hu29F1 VH I52E
B19: MYT9710 (antibody, V domains shown)
VH: B16 VH with E32S, A66E
VL: B16 VL
notes: also called hu29F1 VH A66E
B20: MYT9701 (antibody, V domains shown)
VH: B16 VH with E32S, I57E
VL: B16 VL
notes: also called hu29F1 VH I57E
B21: MYT9706 (antibody, V domains shown)
VH: B16 VH with E32S, Y62E
VL: B16 VL
notes: also called hu29F1 VH Y62E
B22: MYT9711 (antibody, V domains shown)
VH: B16 VH with E32S, K67E
VL: B16 VL
notes: also called hu29F1 VH K67E
B23: MYT9713 (antibody, V domains shown)
VH: B16 VH with E32S, A99E
VL: B16 VL
notes: also called hu29F1 VH A99E
B24: MYT9705 (antibody, V domains shown)
VH: B16 VH with E32S, Y61E
VL: B16 VL
notes: also called hu29F1 VH Y61E
B25: MYT9707 (antibody, V domains shown)
VH: B16 VH with E32S, A63E
VL: B16 VL
notes: also called hu29F1 VH A63E
B26: MYT9704 (antibody, V domains shown)
VH: B16 VH with E32S, T60E
VL: B16 VL
notes: also called hu29F1 VH T60E
B27: MYT9699 (antibody, V domains shown)
VH: B16 VH with E32S, G55E
VL: B16 VL
notes: also called hu29F1 VH G55E
B28: MYT9712 (antibody, V domains shown)
VH: B16 VH with E32S, G68E
VL: B16 VL
notes: also called hu29F1 VH G68E
B29: MYT9708 (antibody, V domains shown)
VH: B16 VH with E32S, S64E
VL: B16 VL
notes: also called hu29F1 VH S64E
B30: MYT9714 (antibody, V domains shown)
VH: B16 VH with E32S, R100E
VL: B16 VL
notes: also called hu29F1 VH R100E
B31: MYT9703 (antibody, V domains shown)
VH: B16 VH with E32S, S59E
VL: B16 VL
notes: Humanized 29F1 VH glutamate variant; also called hu29F1 VH S59E
B32: MYT9691 (antibody, V domains shown)
VH: B16 VH with E32S, H33E
VL: B16 VL
notes: also called hu29F1 VH H33E
B33: MYT9702 (antibody, V domains shown)
VH: B16 VH with E32S, G58E
VL: B16 VL
notes: also called hu29F1 VH G58E

target: T1, Human LRRC15 Protein, His Tag (Acro …); assay: BLI; dissociation pH 7.4 black, pH 5.4 grey [D00009 FIG. 1G]

Row | binding result | Binder
1 | binds | B1
2 | binds | B2
3 | no binding (tested: 50 nM LRRC15) | B3
4 | no binding (tested: 50 nM LRRC15) | B4
5 | binds | B5
6 | binds | B6
7 | no binding (tested: 50 nM LRRC15) | B7
8 | binds | B8
9 | binds | B9
10 | no binding (tested: 50 nM LRRC15) | B10
11 | no binding (tested: 50 nM LRRC15) | B11
12 | no binding (tested: 50 nM LRRC15) | B12
13 | no binding (tested: 50 nM LRRC15) | B13
14 | binds | B14
15 | binds | B15

target: T2, Human LRRC15 Protein, His Tag (Acro …); assay: BLI; dissociation pH 7.4 black, pH 5.4 grey [1/2); D00025 FIG. 6B (1/2]
Description: Desirable mutations were transferred to a humanized framework (humanized, MYT 8387-8411). After allowing for four days of protein expression, cell culture supernatants were collected, quantified by SDS-PAGE analysis, and the pH dependence of the variant was evaluated using biolayer interferometry (BLI) on an Octet RED 96e instrument. Briefly, cell culture supernatants were diluted based on qualitative expression level of the variant determined by visual examination of SDS-PAGE gels, 5 μL of cell culture supernatant was diluted into 195 μL of 1×PBST, pH 7.4 for high expressors, 25 μL of cell culture supernatant was diluted into 175 μL of 1×PBST, pH 7.4 for medium expressors and 100 μL of cell culture supernatant was diluted into 100 μL of 1×PBST, pH 7.4 for low expressors for loading onto the sensor tips. The resulting diluted supernatants were then captured on an anti-human Fc sensor (Forte Bio). A baseline was established using 1×PBST (50 mM Potassium Phosphate Buffer+150 mM NaCl+0.05% Tween 20) pH 7.4, and the […] was associated with 50 nM of LRRC15 (Human LRRC15 Protein, His Tag, Acro Biosystems) in 1×PBST pH 7.4 for 120 sec to generate an association curve. In the dissociation phase, the antibody-antigen complex on the sensor was exposed to 1×PBST pH 7.4 or pH 5.4, for 300 sec. Association and dissociation phase curves were examined for the starting ABPC antibody (with no substitutions) and each corresponding antibody variant at pH 5.4 and pH 7.4 to inform on two criteria: a) enhanced dissociation (i.e., higher koff values) at pH 5.4 due to histidine substitution compared to the starting ABPC, (with no substitutions), and b) reduced dissociation at pH 7.4 (i.e., lower koff values) compared to pH 5.4 in the antibody variant itself and with the starting ABPC (with no substitutions).
The methods of Examples 9-10 were applied to RabMAb clone 29F1 (rabbit VH SEQ ID NO: 572 and VL SEQ ID NO: 578; and humanized VH SEQ ID NO: 576 and VL SEQ ID NO: 582).

Row | binding result | Binder
16 | binds | B16
17 | binds | B17
18 | binds | B18
19 | binds | B19
20 | binds | B20
21 | binds | B21
22 | binds | B22
23 | binds | B23
24 | binds | B24
25 | binds | B25
26 | binds | B26
27 | binds | B27
28 | binds | B28
29 | binds | B29
30 | binds | B30
31 | binds | B31
32 | binds | B32
33 | binds | B33
